Test results: FireProtDB
Values joined by “and” are separate entries in the source; they are usually repeats but may differ in a detail not shown here. Equal entries are not always repeated.

B1: Ribonuclease, P00648 (parent)
chain: MMKMEGIALKKRLSWISVCLLVLVSAAGMLFSTAAKTETSSHKAHTEAQVINTFDGVADYLQTYHKLPDNYITKSEAQALGWVASKGNLADVAPGKSIGGDIFSNREGKLPGKSGRTWREADINYTSGFRNSDRILYSSDWLIYKTTDHYQTFTKIR
B2: Osteomodulin, Q99983 (parent)
chain: MGFLSPIYVIFFFFGVKVHCQYETYQWDEDYDQEPDDDYQTGFPFRQNVDYGVPFHQYTLGCVSECFCPTNFPSSMYCDNRKLKTIPNIPMHIQQLYLQFNEIEAVTANSFINATHLKEINLSHNKIKSQKIDYGVFAKLPNLLQLHLEHNNLEEFPFPLPKSLERLLLGYNEISKLQTNAMDGLVNLTMLDLCYNYLHDSLLKDKIFAKMEKLMQLNLCSNRLESMPPGLPSSLMYLSLENNSISSIPEKYFDKLPKLHTLRMSHNKLQDIPYNIFNLPNIVELSVGHNKLKQAFYIPRNLEHLYLQNNEIEKMNLTVMCPSIDPLHYHHLTYIRVDQNKLKEPISSYIFFCFPHIHTIYYGEQRSTNGQTIQLKTQVFRRFPDDDDESEDHDDPDNAHESPEQEGAEGHFDLHYYENQE
B3: DNA-binding transcriptional dual regulator CRP, P0ACJ8 (parent)
chain: MVLGKPQTDPTLEWFLSHCHIHKYPSKSTLIHQGEKAETLYYIVKGSVAVLIKDEEGKEMILSYLNQGDFIGELGLFEEGQERSAWVRAKTACEVAEISYKKFRQLIQVNPDILMRLSAQMARRLQVTSEKVGNLAFLDVTGRIAQTLLNLAKQPDAMTHPDGMQIKITRQEIGQIVGCSRETVGRILKMLEDQNLISAHGKTIVVYGTR
B4: Phosphoglycerate kinase, P18912 (parent)
chain: MNKKTIRDVDVRGKRVFCRVDFNVPMEQGAITDDTRIRAALPTIRYLIEHGAKVILASHLGRPKGKVVEELRLDAVAKRLGELLERPVAKTNEAVGDEVKAAVDRLNEGDVLLLENVRFYPGEEKNDPELAKAFAELADLYVNDAFGAAHRAHASTEGIAHYLPAVAGFLMEKELEVLGKALSNPDRPFTAIIGGAKVKDKIGVIDNLLEKVDNLIIGGGLAYTFVKALGHDVGKSLLEEDKIELAKSFMEKAKEKGVRFYMPVDVVVADRFANDANTKVVPIDAIPADWSALDIGPKTRELYRDVIRESKLVVWNGPMGVFEMDAFAHGTKAIAEALAEALDTYSVIGGGDSAAAVEKFGLADKMDHISTGGGASLEFMEGKQLPGVVALEDK
B5: Endo-1,4-beta-xylanase 2, P36217 (parent)
chain: MVSFTSLLAGVAAISGVLAAPAAEVESVAVEKRQTIQPGTGYNNGYFYSYWNDGHGGVTYTNGPGGQFSVNWSNSGNFVGGKGWQPGTKNKVINFSGSYNPNGNSYLSVYGWSRNPLIEYYIVENFGTYNPSTGATKLGEVTSDGSVYDIYRTQRVNQPSIIGTATFYQYWSVRRNHRSSGSVNTANHFNAWAQQGLTLGTMDYQIVAVEGYFSSGSASITVS
B6: N-(5'-phosphoribosyl)anthranilate isomerase, P00912 (parent)
chain: MSVINFTGSSGPLVKVCGLQSTEAAECALDSDADLLGIICVPNRKRTIDPVIARKISSLVKAYKNSSGTPKYLVGVFRNQPKEDVLALVNDYGIDIVQLHGDESWQEYQEFLGLPVIKRLVFPKDCNILLSAASQKPHSFIPLFDSEAGGTGELLDWNSISDWVGRQESPESLHFMLAGGLTPENVGDALRLNGVIGVDVSGGVETNGVKDSNKIANFVKNAKK
B7: Holocytochrome-c synthase, P06182 (parent)
chain: MGWFWADQKTTGKDIGGAAVSSMSGCPVMHESSSSSPPSSECPVMQGDNDRINPLNNMPELAASKQPGQKMDLPVDRTISSIPKSPDSNEFWEYPSPQQMYNAMVRKGKIGGSGEVAEDAVESMVQVHNFLNEGCWQEVLEWEKPHTDESHVQPKLLKFMGKPGVLSPRARWMHLCGLLFPSHFSQELPFDRHDWIVLRGERKAEQQPPTFKEVRYVLDFYGGPDDENGMPTFHVDVRPALDSLDNAKDRMTRFLDRMISGPSSSSSAP
B8: NADP-dependent isopropanol dehydrogenase, P25984 (parent)
chain: MKGFAMLGINKLGWIEKERPVAGSYDAIVRPLAVSPCTSDIHTVFEGALGDRKNMILGHEAVGEVVEVGSEVKDFKPGDRVIVPCTTPDWRSLEVQAGFQQHSNGMLAGWKFSNFKDGVFGEYFHVNDADMNLAILPKDMPLENAVMITDMMTTGFHGAELADIQMGSSVVVIGIGAVGLMGIAGAKLRGAGRIIGVGSRPICVEAAKFYGATDILNYKNGHIVDQVMKLTNGKGVDRVIMAGGGSETLSQAVSMVKPGGIISNINYHGSGDALLIPRVEWGCGMAHKTIKGGLCPGGRLRAEMLRDMVVYNRVDLSKLVTHVYHGFDHIEEALLLMKDKPKDLIKAVVIL
B9: Phosphoglycerate kinase 1, P00558 (parent)
chain: MSLSNKLTLDKLDVKGKRVVMRVDFNVPMKNNQITNNQRIKAAVPSIKFCLDNGAKSVVLMSHLGRPDGVPMPDKYSLEPVAVELKSLLGKDVLFLKDCVGPEVEKACANPAAGSVILLENLRFHVEEEGKGKDASGNKVKAEPAKIEAFRASLSKLGDVYVNDAFGTAHRAHSSMVGVNLPQKAGGFLMKKELNYFAKALESPERPFLAILGGAKVADKIQLINNMLDKVNEMIIGGGMAFTFLKVLNNMEIGTSLFDEEGAKIVKDLMSKAEKNGVKITLPVDFVTADKFDENAKTGQATVASGIPAGWMGLDCGPESSKKYAEAVTRAKQIVWNGPVGVFEWEAFARGTKALMDEVVKATSRGCITIIGGGDTATCCAKWNTEDKVSHVSTGGGASLELLEGKVLPGVDALSNI
B10: Malate dehydrogenase, P80040 (parent)
chain: MRKKISIIGAGFVGSTTAHWLAAKELGDIVLLDFVEGVPQGKALDLYEASPIEGFDVRVTGTNNYADTANSDVIVVTSGAPRKPGMSREDLIKVNADITRACISQAAPLSPNAVIIMVNNPLDAMTYLAAEVSGFPKERVIGQAGVLDAARYRTFIAMEAGVSVEDVQAMLMGGHGDEMVPLPRFSTISGIPVSEFIAPDRLAQIVERTRKGGGEIVNLLKTGSAYYAPAAATAQMVEAVLKDKKRVMPVAAYLTGQYGLNDIYFGVPVILGAGGVEKILELPLNEEEMALLNASAKAVRATLDTLKSL
B11: Pseudoazurin, P80401 (parent)
chain: MFHHSLAAAAAALLALAAPGFAATHEVHMLNKGESGAMVFEPAFVRAEPGDVINFVPTDKSHNVEAIKEILPEGVESFKSKINESYTLTVTEPGLYGVKCTPHFGMGMVGLVQVGDAPENLDAAKTAKMPKKARERMDAELAQVN
B12: Cytochrome c-552, P15452 (parent)
chain: MKKFLLVAVVGLAGITFANEQLAKQKGCMACHDLKAKKVGPAYADVAKKYAGRKDAVDYLAGKIKKGGSGVWGSVPMPPQNVTDAEAKQLAQWILSIK
B13: Persulfide dioxygenase ETHE1, mitochondrial, O95571 (parent)
chain: MAEAVLRVARRQLSQRGGSGAPILLRQMFEPVSCTFTYLLGDRESREAVLIDPVLETAPRDAQLIKELGLRLLYAVNTHCHADHITGSGLLRSLLPGCQSVISRLSGAQADLHIEDGDSIRFGRFALETRASPGHTPGCVTFVLNDHSMAFTGDALLIRGCGRTDFQQGCAKTLYHSVHEKIFTLPGDCLIYPAHDYHGFTVSTVEEERTLNPRLTLSCEEFVKIMGNLNLPKPQQIDFAVPANMRCGVQTPTA

Variants of: B1
Conditions: Bacillus amyloliquefaciens; pH 6.3; 25 °C; Urea; Fluorescence; MES 1 M; structure 1BNI; whole UniProt chain shown

Variant	ddG of mutation (higher = less stable)	unfolding free energy
H65G	0.89 kcal/mol	8.01 kcal/mol
H65A	2.15 kcal/mol	6.75 kcal/mol
A79G	0.91 kcal/mol	7.99 kcal/mol

Same assay, conditions: Bacillus amyloliquefaciens; pH 6.3; 25 °C; Urea; Fluorescence; MES 50 mM; reversible: yes; structure 1BNI; whole UniProt chain shown

Variant	ddG of mutation (higher = less stable)
H65Q	1.6 kcal/mol
T73A	2.14 kcal/mol
L61A	4.8 kcal/mol
T63S	1.87 kcal/mol
Y125F	1.5 kcal/mol
T53A	2.23 kcal/mol

Same assay, conditions: Bacillus amyloliquefaciens; pH 6.3; 25 °C; Urea; Fluorescence; MES 1.00 M; NaCl 613 mM; reversible: yes; structure 1BNI; whole UniProt chain shown

Variant	ddG of mutation (higher = less stable)
T63S Y64A	2.39 kcal/mol
Y60A	3.71 kcal/mol

Same assay, conditions: Bacillus amyloliquefaciens; pH 2.7; Thermal; DSC; glycine-HCl 20 mM; reversible: yes; structure 1BNI; whole UniProt chain shown

Variant	Tm
S132C H149C	47.4 °C

Same assay, conditions: Bacillus amyloliquefaciens; pH 6.3; 25 °C; Urea; Fluorescence; MES 50 mM; structure 1BNI; whole UniProt chain shown

Variant	ddG of mutation (higher = less stable)
E120Q	2.7 kcal/mol
E120W	2.2 kcal/mol
E120F	2.1 kcal/mol

Same assay, conditions: Bacillus amyloliquefaciens; pH 6.3; 25 °C; Urea; Fluorescence; MES 10 mM; reversible: yes; structure 1BNI; whole UniProt chain shown

Variant	ddG of mutation (higher = less stable)	denaturant m value	denaturant midpoint (higher = more stable)	unfolding free energy
S75E	-0.61 kcal/mol	1.99 kcal/mol/M	4.74 M	9.44 kcal/mol

Same assay, conditions: Bacillus amyloliquefaciens; pH 2.7; Thermal; CD; glycine-HCl 20 mM; KCl 200 mM; reversible: yes; structure 1BNI; whole UniProt chain shown

Variant	Tm
I51A I98V	25.7 °C

Same assay, conditions: Bacillus amyloliquefaciens; pH 2.7; Thermal; DSC; glycine-HCl 20 mM; KCl 200 mM; reversible: yes; structure 1BNI; whole UniProt chain shown

Variant	Tm
I51A I98V	25.4 °C

Same assay, conditions: Bacillus amyloliquefaciens; pH 6.3; 25 °C; Thermal; Fluorescence; MES 50 mM; structure 1BNI; whole UniProt chain shown

Variant	ddG of mutation (higher = less stable)	unfolding free energy
D101N	2.6 kcal/mol	7.6 kcal/mol
D101A	3.3 kcal/mol	6.9 kcal/mol

Variants of: B2
Conditions: Homo sapiens; pH 7.4; Thermal; DSC; PBS; transition: 2; structure 5YQ5; whole UniProt chain shown

Variant	Tm
E225R	41.8 °C
D254R	37 °C
E303R	43.3 °C
N278R	38.5 °C
E284R	42.3 °C
E284R E303R	43.8 °C
E173R	42.3 °C

Variants of: B3
Conditions: Escherichia coli (strain K12); pH 7.9; 20 °C; Thermal; CD; Tris-HCl 50 mM; KCl 100 mM; reversible: yes; structure 1G6N; whole UniProt chain shown

Variant	ddG of mutation (higher = less stable)	unfolding free energy
S129A	0.26 kcal/mol	7.06 kcal/mol

Variants of: B4
Conditions: Geobacillus stearothermophilus; pH 7.2; 25 °C; GdnHCl; Fluorescence; TEA 50 mM; reversible: no; structure 1PHP; whole UniProt chain shown

Variant	unfolding free energy
I217A L221A	5.7 kcal/mol and 9.6 kcal/mol

Variants of: B5
Conditions: Hypocrea jecorina (strain ATCC 56765 / BCRC 32924 / NRRL 11460 / Rut C-30); pH 5; Thermal; DSC; citrate - phosphate buffer 50 mM; structure 1ENX; whole UniProt chain shown

Variant	Tm	change of melting temperature, mutant - wild type (higher = more stable)
T35C T61C K91R	72.5 °C	11.1 °C

Variants of: B6
Conditions: Saccharomyces cerevisiae (strain ATCC 204508 / S288c); pH 6.5; 23 °C; GdnHCl; CD; Potassium phosphate 0.05 M; reversible: yes; whole UniProt chain shown

Variant	ddG of mutation (higher = less stable)
S212C	1 kcal/mol

Variants of: B7
Conditions: Saccharomyces cerevisiae (strain ATCC 204508 / S288c); pH 6; Thermal; Absorbance; Sodium phosphate 100 mM; reversible: yes; whole UniProt chain shown

Variant	Tm	change of melting temperature, mutant - wild type (higher = more stable)	heat capacity change of unfolding	unfolding enthalpy (van 't Hoff)
N57I	63.7 °C	17.2 °C	2 kcal/mol/K	109 kcal/mol

Variants of: B8
Conditions: Clostridium beijerinckii; pH 6.8; Thermal; CD; Na/K phosphate 50 mM; structure 1KEV; whole UniProt chain shown

Variant	Tm	change of melting temperature, mutant - wild type (higher = more stable)
V224E S254K Q165E M304R R238A	73.6 °C	8.5 °C
V224E S254K	70.5 °C	5.4 °C
Q165E M304R	70.4 °C	5.3 °C
V224E S254K Q165E M304R	73.7 °C	8.6 °C

Variants of: B9
Conditions: Homo sapiens; pH 7.4; 25 °C; Urea; CD; HEPES 20mM; NaCl 200 mM; transition: 2; reversible: Yes; structure 2WZB; whole UniProt chain shown

Variant	ddG of mutation (higher = less stable)	denaturant m value	denaturant midpoint (higher = more stable)	unfolding free energy
E252A	0.7 kcal/mol	3.2 kcal/mol/M	2.37 M	7.6 kcal/mol
T378P	4.8 kcal/mol	1.5 kcal/mol/M	2.28 M	3.5 kcal/mol

Variants of: B10
Conditions: Chloroflexus aurantiacus (strain ATCC 29366 / DSM 635 / J-10-fl); pH 7.5; Thermal; CD; potassium phosphate 10 mM; reversible: No; structure 1GUY; whole UniProt chain shown

Variant	Tm	change of melting temperature, mutant - wild type (higher = more stable)
T187C	82.8 °C	15 °C

Variants of: B11
Conditions: Paracoccus pantotrophus; pH 7; 25 °C; Urea; CD; Sodium phosphate 20 mM; Na2SO4 0.5 M; reversible: yes; structure 1ADW; whole UniProt chain shown

Variant	denaturant m value
Y96W	1.19 kcal/mol/M

Variants of: B12
Conditions: Hydrogenobacter thermophilus (strain DSM 6534 / IAM 12695 / TK-6); pH 7; Thermal; CD; reversible: yes; structure 1YNR; whole UniProt chain shown

Variant	change of melting temperature, mutant - wild type (higher = more stable)
A91V	-7.5 °C and -2.9 °C

Variants of: B13
Conditions: Homo sapiens; pH 7.5; Thermal; CD; Tris-HCl 50mM; NaCl 150mM; transition: 2; structure 4CHL; whole UniProt chain shown

Variant	Tm	change of melting temperature, mutant - wild type (higher = more stable)
R163W	52 °C	-10 °C
R163Q	55 °C	-7 °C
